Positions count from the first letter of the chain named. Where no end group is shown, it is not given here. [ ]: non-standard residue; d: D form. pY = N[C@@H](Cc1ccc(OP(=O)(O)O)cc1)C(=O)O
Columns and labels:
HLA DPB1*04:02 = molecular target: T1, HLA DPB1*04:02 (human); assay: competition with radiolabeled peptide, purified HLA
T1 construct: purified HLA class II molecule; only the beta-chain allele is printed

HLA DPB1*05:01 = molecular target: T2, HLA DPB1*05:01 (human); assay: as above
T2 construct: purified HLA class II molecule; only the beta-chain allele is printed

HLA DPB1*04:01 = molecular target: T3, HLA DPB1*04:01 (human); assay: as above
T3 chain 1: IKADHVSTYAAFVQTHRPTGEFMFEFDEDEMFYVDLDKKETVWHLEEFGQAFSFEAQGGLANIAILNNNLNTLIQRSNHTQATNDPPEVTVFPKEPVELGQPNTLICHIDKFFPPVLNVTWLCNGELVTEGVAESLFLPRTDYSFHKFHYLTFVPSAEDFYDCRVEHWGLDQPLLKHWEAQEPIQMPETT
T3 chain 2: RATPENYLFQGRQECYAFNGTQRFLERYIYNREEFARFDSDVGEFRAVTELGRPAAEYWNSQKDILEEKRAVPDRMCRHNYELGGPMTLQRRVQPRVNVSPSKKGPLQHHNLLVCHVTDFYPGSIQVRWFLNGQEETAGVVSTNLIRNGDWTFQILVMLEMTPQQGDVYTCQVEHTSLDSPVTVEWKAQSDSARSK

HLA DPB1*02:01 = molecular target: T4, HLA DPB1*02:01 (human); assay: as above
T4 chain 1: T3 chain 1
T4 chain 2: T3 chain 2 with A36V, A55D, A56E, K69E

HLA DRB1*04:01 = molecular target: T5, HLA DRB1*04:01 (human); assay: as above
T5 construct: purified HLA class II molecule; only the beta-chain allele is printed

HLA DQB1*04:02 = molecular target: T6, HLA DQB1*04:02 (human); assay: as above
T6 construct: purified HLA class II molecule; only the beta-chain allele is printed

HLA DQB1*05:01 = molecular target: T7, HLA DQB1*05:01 (human); assay: as above
T7 construct: purified HLA class II molecule; only the beta-chain allele is printed

HLA DRB3*01:01 = molecular target: T8, HLA DRB3*01:01 (human); assay: as above
T8 construct: purified HLA class II molecule; only the beta-chain allele is printed

HLA A*11:01 = molecular target: T9, HLA A*11:01 (human); assay: competition with radiolabeled peptide, purified HLA A*11:01
T9 construct: purified HLA A*11:01 molecules

B1: alpha-syn peptide aa32KTKEGVLYVGSKTKEaa46 phosphorylated at Y39 (peptide)
peptide: KTKEGVL[pY]VGSKTKE
notes: synthetic post-translationally modified 15-mer; also called Phospho-Y
- IC50 (HLA DPB1*04:02): 1600 nM
- IC50 (HLA DPB1*05:01): 777 nM
- IC50 (HLA DPB1*04:01): 937 nM
- IC50 (HLA DPB1*02:01): 620 nM

Binder: DNEAYEMPSEEGYQD (synthetic 15-mer of alpha-synuclein) [alpha-syn peptide aa121DNEAYEMPSEEGYQDaa135]
- IC50 (HLA DRB1*04:01): 76 nM
- IC50 (HLA DQB1*04:02): 51 nM
- IC50 (HLA DQB1*05:01): 7 nM
- IC50 (HLA DRB3*01:01): 787 nM

Binder: VLYVGSKTK (synthetic 9-mer; also called the 9 mer) [alpha-syn peptide aa37VLYVGSKTKaa45]
- IC50 (HLA A*11:01): 161 nM
